This note sets out measurements from paper PMC3901395, “Multivalent interactions of the SUMO-interaction motifs in RING finger protein 4 determine the specificity for chains of the SUMO” (Biochemical Journal, 2013).

The test relates to (SUMO2)4–GFP–HA2. The experiment in a line: Pulse–chase analysis of (SUMO2)4–GFP–HA2 turnover in yeast. Type of test: cell-based, S. cerevisiae. The note with it: 2 min pulse labelling with [35S]methionine, anti-HA immunoprecipitation, phosphorimaging. An excerpt: To correlate the strength of the interaction of RNF4 and its SIM mutants with poly-SUMOs to the activity of RNF4 in living cells, we made use of our previous findings that RNF4 is functional in yeast and disrupts PML-NBs in mammalian cells. We therefore co-expressed combinations of full-length wt RNF4 or its SIM mutants with poly-SUMO chains that retained the native N-terminus on the first SUMO moiety and were C-terminally tagged with GFP–HA in S. cerevisiae. As shown in Figures 3(A)–3(C), the poly-SUMO–GFP–HA reporter constructs were efficiently targeted for degradation. Compared with the control transformants not expressing RNF4, the levels of di-SUMO2 were reduced to approximately 55%, and this effect was enhanced if the chain was composed of three or four SUMOs (45% and 43% of control levels respectively). […]
Concentrated di-SUMO2-/Delta1N11 (10 mg/ml) in crystallization […] buffer was used for crystallization experiments by hanging-drop […] vapour diffusion. Crystals grew in a solution of 0.1 M Tris/HCl, […] pH 8.0, 28 % PEG 350 MME (Qiagen) and 0.05 % dioxane within […] 2–4 days at room temperature (21 ◦ C). […]

B1: RNF4 FL: full-length human RNF4 (RING finger protein 4); FLAG-tagged in yeast, HA-tagged in HeLa cells (protein)
chain: MSTRKRRGGAINSRQAQKRTREATSTPEISLEAEPIELVETAGDEIVDLTCESLEPVVVDLTHNDSVVIVDERRRPRRNARRLPQDHADSCVVSSDDEELSRDRDVYVTTHTPRNARDEGATGLRPSGTVSCPICMDGYSEIVQNGRLIVSTECGHVFCSQCLRDSLKNANTCPTCRKKINHKRYHPIYI
modifications: left off: GST, end not stated, cleaved
notes: full-length human RNF4 (RING finger protein 4); FLAG-tagged in yeast, HA-tagged in HeLa cells
With B1, the “turnover of linear tetra-SUMO2 reporter, pulse–chase” value was “degraded upon coexpression of RNF4”.
